The values that follow come from article PMC6917434 (Journal of thrombosis and haemostasis : JTH, 2019).

Experiment in all cases: single-molecule atomic force microscopy
Series [1] addresses Factor XIII A subunit of plasma-purified inactive factor XIII (pFXIII-A2B2) (human) (UniProt P00488).
Series [2] deals with the molecule itself.
Series [3] deals with the molecule itself. This is another data set of the same source.
In series [4] the target is T1, recombinant inactive factor XIII A subunit from ZymoGenetics (rFXIII-A2) (human), P00488.
T1 chain: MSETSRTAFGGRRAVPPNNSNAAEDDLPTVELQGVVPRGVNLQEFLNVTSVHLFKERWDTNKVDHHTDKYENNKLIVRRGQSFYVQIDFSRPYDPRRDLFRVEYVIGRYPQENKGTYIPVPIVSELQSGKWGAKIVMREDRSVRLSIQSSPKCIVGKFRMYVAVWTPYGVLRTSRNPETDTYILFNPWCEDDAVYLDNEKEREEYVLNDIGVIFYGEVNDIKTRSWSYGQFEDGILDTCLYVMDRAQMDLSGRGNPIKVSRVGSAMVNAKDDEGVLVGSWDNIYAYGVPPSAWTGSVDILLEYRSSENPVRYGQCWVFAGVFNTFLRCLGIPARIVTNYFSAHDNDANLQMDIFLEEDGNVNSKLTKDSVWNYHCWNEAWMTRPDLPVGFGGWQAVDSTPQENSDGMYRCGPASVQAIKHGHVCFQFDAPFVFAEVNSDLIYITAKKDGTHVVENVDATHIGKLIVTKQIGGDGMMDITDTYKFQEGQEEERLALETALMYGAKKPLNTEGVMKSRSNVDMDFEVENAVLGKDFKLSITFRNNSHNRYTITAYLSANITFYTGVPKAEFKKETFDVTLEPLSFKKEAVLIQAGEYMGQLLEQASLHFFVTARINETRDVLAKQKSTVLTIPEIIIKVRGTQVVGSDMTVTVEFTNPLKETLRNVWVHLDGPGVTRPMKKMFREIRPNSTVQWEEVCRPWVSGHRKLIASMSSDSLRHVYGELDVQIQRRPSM
As to conditions: remark: other sources report otherwise.

In series [5] the target is T1, recombinant inactive factor XIII A …. The note with it: remark: other sources report otherwise.

Where two headings read alike, the source gives them in different places.

As for “Factor XIII A subunit of plasma-purified inactive factor XIII (pFXIII-A2B2) (from UniProt P00488 39-732) (enzyme)”, the stoichiometry N (as a rule, a count of units in the complex or per binding partner) in series [1] was 2.

B1: recombinant factor XIII B subunit from Zedira (rFXIII-B2) (natural protein, human, UniProt P05160 21-661, looked up)
chain: EEKPCGFPHVENGRIAQYYYTFKSFYFPMSIDKKLSFFCLAGYTTESGRQEEQTTCTTEGWSPEPRCFKKCTKPDLSNGYISDVKLLYKIQENMRYGCASGYKTTGGKDEEVVQCLSDGWSSQPTCRKEHETCLAPELYNGNYSTTQKTFKVKDKVQYECATGYYTAGGKKTEEVECLTYGWSLTPKCTKLKCSSLRLIENGYFHPVKQTYEEGDVVQFFCHENYYLSGSDLIQCYNFGWYPESPVCEGRRNRCPPPPLPINSKIQTHSTTYRHGEIVHIECELNFEIHGSAEIRCEDGKWTEPPKCIEGQEKVACEEPPFIENGAANLHSKIYYNGDKVTYACKSGYLLHGSNEITCNRGKWTLPPECVENNENCKHPPVVMNGAVADGILASYATGSSVEYRCNEYYLLRGSKISRCEQGKWSSPPVCLEPCTVNVDYMNRNNIEMKWKYEGKVLHGDLIDFVCKQGYDLSPLTPLSELSVQCNRGEVKYPLCTRKESKGMCTSPPLIKHGVIISSTVDTYENGSSVEYRCFDHHFLEGSREAYCLDGMWTTPPLCLEPCTLSFTEMEKNNLLLKWDFDNRPHILHGEYIEFICRGDTYPAELYITGSILRMQCDRGQLKYPRCIPRQSTLSYQEPLRT
modifications: glycosylation pattern different from the plasma-purified B subunit (sites not given)
Turning to B1, the “stoichiometry N” value in series [2] was determined as 2.

B2: Factor XIII B subunit of plasma-purified factor XIII (natural protein, human, UniProt P05160 21-661, looked up)
chain: B1 chain
modifications: glycoprotein (sites not given)
As for B2, the “stoichiometry N” value in series [3] came to 2.

B3: recombinant inactive factor XIII A subunit from ZymoGenetics (rFXIII-A2), P00488 1-732 (enzyme)
chain: T1 chain
Regarding B3, the stoichiometry N in series [4] and in series [5] was 2 in each case.
